Source: patent publication US20240192201, “BRAIN NATRIURETIC PEPTIDE APTAMER FLUORESCENCE DETECTION DEVICE BASED ON SMART PHONE AND SENSING METHOD OF SAME” (TianJin University, published 2024)

Molecular target: BNP (brain natriuretic peptide) (UniProt P16860 P16860:103-134)
Experiment: FRET recovery from carboxylated graphene oxide quencher (40 ug/ml), 100 nmol/L aptamer, pH 7.2-7.4, room temperature, 35 min
Settings: label: 5'-FAM
Description: The signal response relationship between BNP concentration and fluorescence intensity obtained by detecting BNP in the present invention, its specific detection steps are as follows: [0080] (1) Blank control experiment: individually detect the fluorescence intensity of 100 nmol/L aptamer solution, and set the excitation wavelength as 492 nm, the emission wavelength as 519 nm, and the emission spectrum detection range as 505-610 nm, then use the obtained results as controls. [0081] (2) Mix 100 nmol/L of aptamer solution with 40 ug/ml of carboxylated graphene oxide solution by equal volume, and control the pH value of the solution at 7.2-7.4, and then leave it at room temperature for about 20 min. Then add BNP solution having a series of concentration gradients, respectively, leave it at room temperature for about 35 min, next take out an appropriate amount of mixed solution for fluorescence detection, and record fluorescence spectra at different concentrations. […] With the increase of the BNP concentration, the fluorescence intensity of the solution gradually increases. [0082]

BNP (brain natriuretic peptide), sequence (P16860 103-134, one chain of several): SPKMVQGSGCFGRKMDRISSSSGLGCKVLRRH

B1: FAM-labelled BNP aptamer (ssDNA)
DNA: TTTTTTTATACGGGAGCCAACACCACCTCTCACATTATATTGTGAATACTTCGTGCTGTTTAGAGCAGGTGTGACGGAT
binding result: binds
